Results published in patent US12364743B2, “Microbiota sequence variants of tumor-related antigenic epitopes” (ENTEROME S.A., priority 2016, dated 2025).

Legend:
HLA-A*0201 = target: T1, HLA-A*0201 (Homo sapiens, UniProt P04439, D140Y/D185E/D98H/E176V/E277Q/G131W/G231S/I119V/I121R/I166T/I218V/L300P/L318F/N151K/N90K/P208A/P217A/Q86G/Q94H/R138H/R169H/T345S); test: Affinity of peptides to HLA-A*0201 on T2 cells (FACS, anti-HLA-A2); format: binding; conditions: for binding affinity to HLA-A*0201 compared among peptides: Example 5; for concentration inducing 20% of expression of the HLA-A*0201: 100% = reference peptide HIV pol 589-597 at 100 μM; for Mean fluorescence intensity: 16 hours
T1 construct: the human tumoral cell T2 which expresses the HLA-A*0201 molecule, but which is TAP 1/2 negative; endogenous in cells; host or cells: T2 cells (human, TAP 1/2 negative)
Source text: The experimental protocol is similar to the one that was validated for peptides presented by the HLA-A*0201 (Tourdot et al., A general strategy to enhance immunogenicity of low-affinity HLA-A2.1-associated peptides: implication in the identification of cryptic tumor epitopes. Eur J Immunol. 2000 December; […]:3411-21). Affinity measurement of the peptides is achieved with the human tumoral cell T2 which expresses the HLA-A*0201 molecule, but which is TAP 1/2 negative and incapable of presenting endogenous peptides.
T2 cells (2.10^5 cells per well) were incubated with decreasing concentrations of peptides from 100 μM to 0.1 μM in a AIMV medium supplemented with 100 ng/μl of human β2m at 37° C. for 16 hours. Cells were then washed two times and marked with the anti-HLA-A2 antibody coupled to PE (clone BB7.2, BD Pharmagen).
The analysis was performed by FACS (Guava Easy Cyte). […] A2. Solubilisation of Peptides
The experimental protocol, materials and methods correspond to those outlined in Example 4, with the only difference that the above mentioned antigenic peptides were used.

β/A2/DR3 mice = test: ELISPOT-IFNγ on splenocytes of vaccinated mice; format: in vivo, mouse; conditions: for percentage of ConA-induced response (mean+/−SEM): ELISPOT-IFNγ, vaccination 100 μg s.c. d0 and d14, spleen d21
Source text: Briefly, 14 β/A2/DR3 mice were assigned randomly (based on mouse sex and age) to two experimental groups, each immunized with a specific vaccination peptide (vacc-pAg) combined to a common helper peptide (h-pAg) (as outlined in Table 7 below). The vacc-pAg were compared in couples (group 1 vs. group 2). Thereby, both native and optimized versions of a single peptide were compared in each wave.
The animals were immunized on day o (do) with a prime injection, and on d14 with a boost injection. Each mouse was injected s.c. at tail base with 100 μL of an oil-based emulsion that contained: • 100 μg of vacc-pAg (25 μL of 4 mg/mL stock per mouse); • 150 μg of h-pAg (15 μL of 10 mg/mL stock per mouse); • 10 μL of PBS to reach a total volume of 50 μL (per mouse); • Incomplete Freund's Adjuvant (IFA) added at 1:1 (v:v) ratio (50 μL per mouse).
Seven days after the boost injection (i.e. on d21), the animals were euthanized and the spleen was harvested. Splenocytes were prepared by mechanical disruption of the organ followed by 70 μm-filtering and Ficoll density gradient purification.
The splenocytes were immediately used in an ELISPOT-IFNγ assay (Table 8). Experimental conditions were repeated in quadruplets, using 2*10^5 total splenocytes per well, and were cultured in presence of vacc-pAg (10 μM), Concanavalin A (ConA, 2.5 μg/mL) or medium-only to assess for their capacity to secrete IFNγ. The commercial ELISPOT-IFNγ kit (Diaclone Kit Mujrine IFNγ ELISpot) was used following the manufacturer's instructions, and the assay was performed after about 16 h of incubation.
Spots were counted on a Grand ImmunoSpot® S6 Ultimate UV Image Analyzer interfaced to the ImmunoSpot 5.4 software (CTL-Europe). Data plotting and statistical analysis were performed with the Prism-5 software (GraphPad Software Inc.).
The data were then normalized as a number of specific spots (the average counts obtained in the ‘medium only’ condition being subtracted) per 10^6 total T cells.
The individual average values (obtained from the quadruplicates) were next used to plot the group average values (see FIG. 3A). As the functional capacity of T cells might vary from individual to individual, the data were also expressed as the percentage of the ConA response per individual (see FIG. 3B).

U87-MG cells = test: In vitro cytotoxicity of CD3+ T cells from immunized mice against U87 cells; format: cell-based; conditions: CD3+ T cells of mice immunized with the peptide; 72 hours co-culture; DAPI/annexin V cytometry
Description: Briefly, CD8 T cells from mice immunized with IL13RA2-H or […] were used. These cells were obtained after sorting of splenocyte from immunized mice and were placed on top of U87 cells (tumor cells expressing IL13RA2).
In more detail, CD3^+ T cells were purified from splenocytes of HHD mice immunized with IL13RA2-H ([…], SEQ ID NO: 1) or IL13RA2-B ([…], SEQ ID NO: 18). To this end, B6 β2 m^ko HHD/DR3 mice were injected s.c. at tail base with 100 μL of an oil-based emulsion containing vaccination peptide plus helper peptide plus CFA (complete Freund's adjuvant), at day 0 and day 14 as described in Example 5. On d21, i.e. seven days after the boost injection, the animals were euthanized and the spleen was harvested. Splenocytes were prepared by mechanical disruption of the organ. CD3+ purification was performed using the mouse total T cells isolation kit from Miltenyi biotec using the recommended procedure. […]
U87-MG cells were seeded at 6×10^5 cells/well in flat-bottomed 24-well culture plates and incubated for 24 h at 37° C. in DMEM (Dulbecco's Modified Eagle Medium) containing 10% of FCS (fetal calf serum) and antibiotics. […] 72 hours after co-culture of U87-MG cells and CD3+ T cells, all cells from the wells were harvested and specific U87-MG cell death was evaluated after immunostaining of CD45 negative cells with DAPI and fluorescent annexin V followed by cytometry analysis.

[1] = test system: unresectable or metastatic melanoma; conditions: patients; cited from earlier work
[2] = test system: renal cell carcinoma (RCC); conditions: patients; cited from earlier work
NSCLC = conditions: patients; cited from earlier work
[3] = ex vivo re-stimulation with IL13RA2-B pAg 10 μM
[4] = ex vivo re-stimulation with IL13RA2-H pAg 10 μM

| Substance | binding affinity to HLA-A*0201 compared among peptides (HLA-A*0201) | binding to HLA-A*0201 (HLA-A*0201) | concentration inducing 20% of expression of the HLA-A*0201 (HLA-A*0201) [µM] | Mean fluorescence intensity (HLA-A*0201; peptide at 0.1 μM) | Mean fluorescence intensity (HLA-A*0201; peptide at 1 μM) | Mean fluorescence intensity (HLA-A*0201; peptide at 10 μM) | Mean fluorescence intensity (HLA-A*0201; peptide at 100 μM) | percentage of ConA-induced response (mean+/−SEM) (β/A2/DR3 mice; [3]) | percentage of ConA-induced response (mean+/−SEM) (β/A2/DR3 mice; [4]) | U87 cell lysis (U87-MG cells) | further results |
| --- | --- | --- | --- | --- | --- | --- | --- | --- | --- | --- | --- |
| 1A9V: SEQ ID NO: 1 with tryptophan at position 1 substituted by alanine and isoleucine at position 9 by valine (Eguchi et al., 2006) (ALPFGFILV; listed as Homo sapiens) | lowest affinity of the peptides tested | – | – | – | – | – | – | – | – | – | – |
| FLPFGFILV (sequence variant) [SEQ ID NO: 18] | considerably higher binding affinity to HLA-A*0201 than all other peptides tested | binds strongly | 4.4 | 9.9 | 12.18 | 40.77 | 112.05 | 56.3%+/−18.1 | 32.3%+/−11.8 | U87 cell lysis was observed | In vitro binding affinity (HLA-A*0201; relative affinity = concentration inducing 20% of HLA-A*0201 expression / that of reference peptide HIV pol 589-597, lower = stronger): 0.49; T cell responses in the ELISPOT-IFNγ assay (β/A2/DR3 mice; compared to IL13RA2-H-vaccinated animals): improved T cell responses |
| Ipilumumab: anti-CTLA-4 antibody | – | – | – | – | – | – | – | – | – | – | three-year survival rate [1]: around 20% |
| Nivolumab: check point inhibitor targeting PD1 | – | – | – | – | – | – | – | – | – | – | three-year survival rate [2]: 44%; three-year survival rate (NSCLC): 18% |
| WLPFGFILI (listed as Homo sapiens) [SEQ ID NO: 1] | – | does not bind | 100 | 7.46 | 9.41 | 11.61 | 18.64 | 2.0%+/−0.8 | 1.1%+/−0.8 | not | – |
